Test results taken from patent US20220402983A1 (Janssen / Centocor, published 2022).
*1 amine or outer side, *2 acyl side, *3 side chain or, on linkers, in order; H or OH if unused. Bridges are numbered along the chain shown (N, C = ends). [ ]: non-standard residue; d: D form. The star is where a group is joined. Trp(7-Me) = Cc1cccc2c(C[C@H](N)C(=O)O)c[nH]c12; 2Nal = N[C@@H](Cc1ccc2ccccc2c1)C(=O)O; AEF = NCCOc1ccc(C[C@H](N)C(=O)O)cc1; αMeF = C[C@](N)(Cc1ccccc1)C(=O)O; NMeβAla = CN(CCC(=O)[*:2])[*:1]; Pen = CC(C)(S)[C@H](N)C(=O)O; αMeK = C[C@](N)(CCCCN)C(=O)O; 3Quin = not defined here; Ac5c = NC1(C(=O)O)CCCC1; Thp = NC1(C(=O)O)CCOCC1; Piv = CC(C)(C)C(=O)*; Propionyl = CCC(=O)*; Tfa = O=C(C(F)(F)F)*

T1: human IL-23R (interleukin-23 receptor) (human, UniProt Q5VWK5 24-629)
T1 sequence (looked up): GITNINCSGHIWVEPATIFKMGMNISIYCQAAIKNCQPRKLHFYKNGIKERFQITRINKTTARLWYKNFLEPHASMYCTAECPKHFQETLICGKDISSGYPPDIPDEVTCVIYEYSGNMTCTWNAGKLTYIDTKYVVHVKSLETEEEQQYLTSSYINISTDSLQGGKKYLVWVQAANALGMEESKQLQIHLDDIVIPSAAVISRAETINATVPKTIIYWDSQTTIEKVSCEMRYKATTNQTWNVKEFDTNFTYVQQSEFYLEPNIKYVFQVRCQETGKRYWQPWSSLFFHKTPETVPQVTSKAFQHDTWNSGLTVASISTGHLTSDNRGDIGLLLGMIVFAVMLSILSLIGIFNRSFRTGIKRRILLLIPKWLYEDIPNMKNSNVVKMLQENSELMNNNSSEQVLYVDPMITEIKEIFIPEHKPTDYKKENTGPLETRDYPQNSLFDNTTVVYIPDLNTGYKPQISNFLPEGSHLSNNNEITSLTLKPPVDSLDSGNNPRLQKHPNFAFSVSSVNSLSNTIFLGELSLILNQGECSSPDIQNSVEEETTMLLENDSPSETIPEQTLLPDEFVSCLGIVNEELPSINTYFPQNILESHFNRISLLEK

B1: Compound No. 95 (peptide)
peptide: Ac-[Pen]NTWK(Ac)[Pen][AEF][2Nal][αMeK]K(Ac)N[Thp]-NH2
modifications: disulfide 1-6
SMILES: CC(=O)NCCCC[C@@H]1NC(=O)[C@H](Cc2c[nH]c3ccccc23)NC(=O)[C@H]([C@@H](C)O)NC(=O)[C@H](CC(N)=O)NC(=O)[C@@H](NC(C)=O)C(C)(C)SSC(C)(C)[C@@H](C(=O)N[C@@H](Cc2ccc(OCCN)cc2)C(=O)N[C@@H](Cc2ccc3ccccc3c2)C(=O)N[C@@](C)(CCCCN)C(=O)N[C@@H](CCCCNC(C)=O)C(=O)N[C@@H](CC(N)=O)C(=O)NC2(C(N)=O)CCOCC2)NC1=O
B2: Compound No. 93 (peptide)
peptide: Ac-[dR][Pen]NT[Trp(7-Me)]Q[Pen][AEF][2Nal][Ac5c]EN[αMeF]-NH2
modifications: disulfide 2-7
SMILES: CC(=O)N[C@H](CCCNC(=N)N)C(=O)N[C@@H]1C(=O)N[C@@H](CC(N)=O)C(=O)N[C@@H]([C@@H](C)O)C(=O)N[C@@H](Cc2c[nH]c3c(C)cccc23)C(=O)N[C@@H](CCC(N)=O)C(=O)N[C@H](C(=O)N[C@@H](Cc2ccc(OCCN)cc2)C(=O)N[C@@H](Cc2ccc3ccccc3c2)C(=O)NC2(C(=O)N[C@@H](CCC(=O)O)C(=O)N[C@@H](CC(N)=O)C(=O)N[C@@](C)(Cc3ccccc3)C(N)=O)CCCC2)C(C)(C)SSC1(C)C
B3: Compound No. 89 (peptide)
peptide: XNTXQXFXKKNF
modifications: Ac-[Pen]-N-T-[W(7-Me)]-Q-[Pen]-Phe[4-(2-aminoethoxy)]-[2-Nal]-[a-MeLys]-[Lys(Ac)]-N-[a-MePhe]-NH2; cyclized: Pen-Pen disulfide bond
B4: Compound No. 6 (peptide)
peptide: Propionyl-[dR][Pen]QTWQ[Pen][AEF][2Nal][Thp]K(Tfa)N[Thp]-NH2
modifications: disulfide 2-7
SMILES: CCC(=O)N[C@H](CCCNC(=N)N)C(=O)N[C@@H]1C(=O)N[C@@H](CCC(N)=O)C(=O)N[C@@H]([C@@H](C)O)C(=O)N[C@@H](Cc2c[nH]c3ccccc23)C(=O)N[C@@H](CCC(N)=O)C(=O)N[C@H](C(=O)N[C@@H](Cc2ccc(OCCN)cc2)C(=O)N[C@@H](Cc2ccc3ccccc3c2)C(=O)NC2(C(=O)N[C@@H](CCCCNC(=O)C(F)(F)F)C(=O)N[C@@H](CC(N)=O)C(=O)NC3(C(N)=O)CCOCC3)CCOCC2)C(C)(C)SSC1(C)C
B5: Compound No. 97 (peptide)
peptide: Ac-[dR][Pen]QTWQ[Pen][AEF][2Nal][Thp]EN[αMeF]-NH2
modifications: disulfide 2-7
SMILES: CC(=O)N[C@H](CCCNC(=N)N)C(=O)N[C@@H]1C(=O)N[C@@H](CCC(N)=O)C(=O)N[C@@H]([C@@H](C)O)C(=O)N[C@@H](Cc2c[nH]c3ccccc23)C(=O)N[C@@H](CCC(N)=O)C(=O)N[C@H](C(=O)N[C@@H](Cc2ccc(OCCN)cc2)C(=O)N[C@@H](Cc2ccc3ccccc3c2)C(=O)NC2(C(=O)N[C@@H](CCC(=O)O)C(=O)N[C@@H](CC(N)=O)C(=O)N[C@@](C)(Cc3ccccc3)C(N)=O)CCOCC2)C(C)(C)SSC1(C)C
B6: Compound No. 7 (peptide)
peptide: Propionyl-[dR][Pen]QTWQ[Pen][AEF][2Nal][Thp]K(Piv)N[Thp]-NH2
modifications: disulfide 2-7
SMILES: CCC(=O)N[C@H](CCCNC(=N)N)C(=O)N[C@@H]1C(=O)N[C@@H](CCC(N)=O)C(=O)N[C@@H]([C@@H](C)O)C(=O)N[C@@H](Cc2c[nH]c3ccccc23)C(=O)N[C@@H](CCC(N)=O)C(=O)N[C@H](C(=O)N[C@@H](Cc2ccc(OCCN)cc2)C(=O)N[C@@H](Cc2ccc3ccccc3c2)C(=O)NC2(C(=O)N[C@@H](CCCCNC(=O)C(C)(C)C)C(=O)N[C@@H](CC(N)=O)C(=O)NC3(C(N)=O)CCOCC3)CCOCC2)C(C)(C)SSC1(C)C
B7: Compound No. 91 (peptide)
peptide: Ac-[dR][Pen]NT[Trp(7-Me)]Q[Pen][AEF][2Nal][Thp]EN[αMeF]-NH2
modifications: disulfide 2-7
SMILES: CC(=O)N[C@H](CCCNC(=N)N)C(=O)N[C@@H]1C(=O)N[C@@H](CC(N)=O)C(=O)N[C@@H]([C@@H](C)O)C(=O)N[C@@H](Cc2c[nH]c3c(C)cccc23)C(=O)N[C@@H](CCC(N)=O)C(=O)N[C@H](C(=O)N[C@@H](Cc2ccc(OCCN)cc2)C(=O)N[C@@H](Cc2ccc3ccccc3c2)C(=O)NC2(C(=O)N[C@@H](CCC(=O)O)C(=O)N[C@@H](CC(N)=O)C(=O)N[C@@](C)(Cc3ccccc3)C(N)=O)CCOCC2)C(C)(C)SSC1(C)C
B8: Compound No. 90 (peptide)
peptide: Ac-[dR][Pen]NT[Trp(7-Me)]Q[Pen][AEF][2Nal][Thp]EN[Thp]-NH2
modifications: disulfide 2-7
SMILES: CC(=O)N[C@H](CCCNC(=N)N)C(=O)N[C@@H]1C(=O)N[C@@H](CC(N)=O)C(=O)N[C@@H]([C@@H](C)O)C(=O)N[C@@H](Cc2c[nH]c3c(C)cccc23)C(=O)N[C@@H](CCC(N)=O)C(=O)N[C@H](C(=O)N[C@@H](Cc2ccc(OCCN)cc2)C(=O)N[C@@H](Cc2ccc3ccccc3c2)C(=O)NC2(C(=O)N[C@@H](CCC(=O)O)C(=O)N[C@@H](CC(N)=O)C(=O)NC3(C(N)=O)CCOCC3)CCOCC2)C(C)(C)SSC1(C)C
B9: Compound No. 111 (peptide)
peptide: Ac-[dR][Pen]NT[Trp(7-Me)]K(Ac)[Pen][AEF][2Nal][Thp]K(Ac)N[αMeF]-NH2
modifications: disulfide 2-7
SMILES: CC(=O)NCCCC[C@@H]1NC(=O)[C@H](Cc2c[nH]c3c(C)cccc23)NC(=O)[C@H]([C@@H](C)O)NC(=O)[C@H](CC(N)=O)NC(=O)[C@@H](NC(=O)[C@@H](CCCNC(=N)N)NC(C)=O)C(C)(C)SSC(C)(C)[C@@H](C(=O)N[C@@H](Cc2ccc(OCCN)cc2)C(=O)N[C@@H](Cc2ccc3ccccc3c2)C(=O)NC2(C(=O)N[C@@H](CCCCNC(C)=O)C(=O)N[C@@H](CC(N)=O)C(=O)N[C@@](C)(Cc3ccccc3)C(N)=O)CCOCC2)NC1=O
B10: Compound No. 1 (peptide)
peptide: Ac-[Pen]NT[Trp(7-Me)]K(Ac)[Pen][AEF][3Quin][αMeK]K(Ac)N[dL]-NH2
modifications: disulfide 1-6; reading uncertain; also: printed as Ac-[Pen]-N-T-[W(7-Me)]-[Lys(Ac)]-[Pen]-Phe[4-(2-aminoethoxy)]-[3-Quin]-[a-MeLys]-[Lys(Ac)]-N-[(D)Leu)]-NH2
B11: Compound No. 94 (peptide)
peptide: Ac-[dR][Pen]NT[Trp(7-Me)]K(Ac)[Pen][AEF][2Nal][Ac5c]EN[αMeF]-NH2
modifications: disulfide 2-7
SMILES: CC(=O)NCCCC[C@@H]1NC(=O)[C@H](Cc2c[nH]c3c(C)cccc23)NC(=O)[C@H]([C@@H](C)O)NC(=O)[C@H](CC(N)=O)NC(=O)[C@@H](NC(=O)[C@@H](CCCNC(=N)N)NC(C)=O)C(C)(C)SSC(C)(C)[C@@H](C(=O)N[C@@H](Cc2ccc(OCCN)cc2)C(=O)N[C@@H](Cc2ccc3ccccc3c2)C(=O)NC2(C(=O)N[C@@H](CCC(=O)O)C(=O)N[C@@H](CC(N)=O)C(=O)N[C@@](C)(Cc3ccccc3)C(N)=O)CCCC2)NC1=O
B12: Compound No. 8 (peptide)
peptide: Propionyl-[dR][Pen]QTWQ[Pen][AEF][2Nal][Thp]EN[NMeβAla]-NH2
modifications: disulfide 2-7
SMILES: CCC(=O)N[C@H](CCCNC(=N)N)C(=O)N[C@@H]1C(=O)N[C@@H](CCC(N)=O)C(=O)N[C@@H]([C@@H](C)O)C(=O)N[C@@H](Cc2c[nH]c3ccccc23)C(=O)N[C@@H](CCC(N)=O)C(=O)N[C@H](C(=O)N[C@@H](Cc2ccc(OCCN)cc2)C(=O)N[C@@H](Cc2ccc3ccccc3c2)C(=O)NC2(C(=O)N[C@@H](CCC(=O)O)C(=O)N[C@@H](CC(N)=O)C(=O)N(C)CCC(N)=O)CCOCC2)C(C)(C)SSC1(C)C
B13: Compound No. 88 (peptide)
peptide: Ac-[dR][Pen]NTWK(Ac)[Pen][AEF][2Nal][Ac5c]EN[Thp]-NH2
modifications: disulfide 2-7
SMILES: CC(=O)NCCCC[C@@H]1NC(=O)[C@H](Cc2c[nH]c3ccccc23)NC(=O)[C@H]([C@@H](C)O)NC(=O)[C@H](CC(N)=O)NC(=O)[C@@H](NC(=O)[C@@H](CCCNC(=N)N)NC(C)=O)C(C)(C)SSC(C)(C)[C@@H](C(=O)N[C@@H](Cc2ccc(OCCN)cc2)C(=O)N[C@@H](Cc2ccc3ccccc3c2)C(=O)NC2(C(=O)N[C@@H](CCC(=O)O)C(=O)N[C@@H](CC(N)=O)C(=O)NC3(C(N)=O)CCOCC3)CCCC2)NC1=O

Assays:
[1] = biological target: T1, human IL-23R (interleukin-23 receptor); test: cell-based or functional assay
[2] = biological target: T1, human IL-23R (interleukin-23 receptor); test: cell-based or functional assay; remark: listed apart in the source

Row | Binder | PBMC pSTAT3 IC50 (nM) [1] [nM] | pStat3 HTRF (nM), IC50, DB cells IL23R pSTAT3 cell assay [1] [nM] | NK Cell Assay (nM), IC50, IFN-gamma after IL-23 and IL-18 [2] [nM]
1 | B1 | 22 | – | –
2 | B2 | 4.6 | – | –
3 | B3 | 12 | – | –
4 | B4 | 8.6 | 2.46 | 16.8
5 | B5 | 31 | – | –
6 | B6 | 8.6 | 3.87 | 12.6
7 | B7 | 4.1 | – | –
8 | B8 | 3.7 | – | –
9 | B9 | – | 1.29 | 6.51
10 | B10 | – | 0.602 | 2.89
11 | B11 | 12 | – | –
12 | B12 | – | 24.6 | 72.3
13 | B13 | 3.7 | – | –
